Laboratory results published in patent publication US12559863B2, “Macrocyclic modulators of disease associated protein misfolding and aggregation” (RESQ BIOTECH, priority 2017, dated 2026).

Molecular target: T1, Aβ42-GFP (Homo sapiens, UniProt P05067)
T1 construct: a chimeric fusion of the human Aβ(1-42) peptide (Aβ42) with GFP; expressed in transfected cells; host or cells: E. coli BL21(DE3)
Test: High-throughput sequencing of pSICLOPPS vectors isolated after bacterial sorting for enhanced Aβ42-GFP fluorescence
Conditions: for Reads/Total TXXXR reads (%): relative to total TXXXR reads; for Reads/Total pentapeptide reads (%): relative to total pentapeptide reads; for Reads/Total peptide reads (%): relative to total peptide reads
Summary of the method: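 Peptide inserts recovered from repeatedly sorted high-GFP clones were sequenced on Ion Torrent, excluding stop-codon-containing reads. Sorting used BL21(DE3) cells carrying pETAβ42-GFP plus the tetra-, penta- and hexapeptide pSICLOPPS library. Peptide production was induced with 0.002% L-arabinose and the reporter with 0.1 mM IPTG at OD600 ~0.5, at 37° C.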

[1] = after the second round of bacterial sorting
[2] = high-throughput sequencing of isolated pSICLOPPS-NuX1X2X3-X5 vectors after the second round of bacterial sorting for enhanced Aβ42-GFP fluorescence, selected cyclo-TXXXR pentapeptides
[3] = after the second round of bacterial sorting for enhanced Aβ42-GFP fluorescence
[4] = pSICLOPPS-NuX1X2X3-X5 vectors after the second round of bacterial sorting for enhanced Aβ42-GFP fluorescence

Row | Substance | Reads/Total TXXXR reads (%) [1] [%] | Reads/Total pentapeptide reads (%) [1] [%] | Reads/Total peptide reads (%) [1] [%] | Number of reads [2] | Reads/Total TXXXR reads (%) [3] [%] | Reads/Total pentapeptide reads (%) [3] [%] | Reads/Total peptide reads (%) [3] [%] | Number of reads [4]
1 | AβC5-364 (TTMAR; head-to-tail cyclic) | 0.006 | 0.003 | 0.002 | 106 | – | – | – | –
2 | AβC5-365 (TTGGR; head-to-tail cyclic) | 0.006 | 0.003 | 0.002 | 106 | – | – | – | –
3 | AβC5-366 (TTMVR; head-to-tail cyclic) | 0.006 | 0.003 | 0.002 | 105 | – | – | – | –
4 | AβC5-375 (TNLAR; head-to-tail cyclic) | 0.005 | 0.002 | 0.002 | 97 | – | – | – | –
5 | AβC5-376 (TIRDR; head-to-tail cyclic) | 0.005 | 0.002 | 0.002 | 96 | – | – | – | –
6 | AβC5-378 (TTTGR; head-to-tail cyclic) | 0.005 | 0.002 | 0.002 | 96 | – | – | – | –
7 | AβC5-379 (TRLGR; head-to-tail cyclic) | 0.005 | 0.002 | 0.002 | 95 | – | – | – | –
8 | AβC5-381 (TTHTR; head-to-tail cyclic) | 0.005 | 0.002 | 0.002 | 93 | – | – | – | –
9 | AβC5-382 (TTITR; head-to-tail cyclic) | 0.005 | 0.002 | 0.002 | 92 | – | – | – | –
10 | AβC5-384 (TTYTR; head-to-tail cyclic) | 0.005 | 0.002 | 0.002 | 90 | – | – | – | –
11 | AβC5-385 (TTLYR; head-to-tail cyclic) | – | – | – | – | 0.005 | 0.002 | 0.002 | 90
12 | AβC5-389 (THLDR; head-to-tail cyclic) | – | – | – | – | 0.005 | 0.002 | 0.002 | 89
13 | AβC5-391 (TLLIR; head-to-tail cyclic) | – | – | – | – | 0.005 | 0.002 | 0.002 | 88
14 | AβC5-392 (TTCDR; head-to-tail cyclic) | – | – | – | – | 0.005 | 0.002 | 0.002 | 87
15 | AβC5-393 (TTGRR; head-to-tail cyclic) | – | – | – | – | 0.005 | 0.002 | 0.002 | 87
16 | AβC5-394 (TTVSR; head-to-tail cyclic) | – | – | – | – | 0.005 | 0.002 | 0.002 | 86
17 | AβC5-395 (TTQHR; head-to-tail cyclic) | – | – | – | – | 0.004 | 0.002 | 0.002 | 85
18 | AβC5-396 (TTTPR; head-to-tail cyclic) | – | – | – | – | 0.004 | 0.002 | 0.002 | 84
19 | AβC5-399 (TAFAR; head-to-tail cyclic) | – | – | – | – | 0.004 | 0.002 | 0.002 | 82
20 | AβC5-405 (TTSHR; head-to-tail cyclic) | – | – | – | – | 0.004 | 0.002 | 0.002 | 78
21 | AβC5-410 (TVLGR; cyclic pentapeptide) | – | – | – | – | 0.004 | 0.002 | 0.002 | 76
22 | AβC5-411 (TTQRR; cyclic pentapeptide) | – | – | – | – | 0.004 | 0.002 | 0.002 | 75
23 | AβC5-413 (TSHAR; cyclic pentapeptide) | – | – | – | – | 0.004 | 0.002 | 0.002 | 74

Row | Substance | Reads/Total TXXXR reads (%) [1] [%] | Reads/Total pentapeptide reads (%) [1] [%] | Reads/Total peptide reads (%) [1] [%] | Number of reads [2] | Reads/Total TXXXR reads (%) [3] [%] | Reads/Total pentapeptide reads (%) [3] [%] | Reads/Total peptide reads (%) [3] [%] | Number of reads [4]
24 | AβC5-415 (TTTCR; cyclic pentapeptide) | – | – | – | – | 0.004 | 0.002 | 0.002 | 74
25 | AβC5-422 (TAWRR; cyclic pentapeptide) | – | – | – | – | 0.004 | 0.002 | 0.002 | 72
26 | AβC5-428 (TTCGR; cyclic pentapeptide) | – | – | – | – | 0.004 | 0.002 | 0.002 | 69
27 | AβC5-434 (TTSGR; cyclic pentapeptide) | – | – | – | – | 0.003 | 0.002 | 0.001 | 65
28 | AβC5-438 (TTTSR; cyclic pentapeptide) | – | – | – | – | 0.003 | 0.002 | 0.001 | 62
29 | AβC5-440 (TATGR; cyclic pentapeptide) | – | – | – | – | 0.003 | 0.002 | 0.001 | 61
30 | AβC5-441 (TAWDR; cyclic pentapeptide) | – | – | – | – | 0.003 | 0.002 | 0.001 | 61
31 | AβC5-443 (TTHHR; cyclic pentapeptide) | – | – | – | – | 0.003 | 0.001 | 0.001 | 60
32 | AβC5-448 (TAYAR; cyclic pentapeptide) | – | – | – | – | 0.003 | 0.001 | 0.001 | 58
33 | AβC5-449 (TANAR; cyclic pentapeptide) | – | – | – | – | 0.003 | 0.001 | 0.001 | 58
34 | AβC5-450 (TRDVR; cyclic pentapeptide) | – | – | – | – | 0.003 | 0.001 | 0.001 | 58
35 | AβC5-452 (THVDR; cyclic pentapeptide) | – | – | – | – | 0.003 | 0.001 | 0.001 | 58
36 | AβC5-453 (TLFWR; cyclic pentapeptide) | – | – | – | – | 0.003 | 0.001 | 0.001 | 57
37 | AβC5-459 (TTAAR; cyclic pentapeptide) | – | – | – | – | 0.003 | 0.001 | 0.001 | 55
38 | AβC5-463 (TVVDR; cyclic pentapeptide) | – | – | – | – | 0.003 | 0.001 | 0.001 | 54
39 | AβC5-464 (TTPAR; cyclic pentapeptide) | – | – | – | – | 0.003 | 0.001 | 0.001 | 54
40 | AβC5-469 (TTIGR; cyclic pentapeptide) | – | – | – | – | 0.003 | 0.001 | 0.001 | 53
41 | AβC5-472 (TMYAR; cyclic pentapeptide) | – | – | – | – | 0.003 | 0.001 | 0.001 | 51
42 | AβC5-473 (THVAR; cyclic pentapeptide) | – | – | – | – | 0.003 | 0.001 | 0.001 | 51
43 | AβC5-474 (TTWPR; cyclic pentapeptide) | – | – | – | – | 0.003 | 0.001 | 0.001 | 51
44 | AβC5-475 (TTGDR; cyclic pentapeptide) | – | – | – | – | 0.003 | 0.001 | 0.001 | 51
45 | AβC5-479 (TTTVR; cyclic pentapeptide) | – | – | – | – | 0.003 | 0.001 | 0.001 | 50
